{"source": "paper PMC12607630", "target": "6×His-SUMO-FtsZ 370-383 (Escherichia coli) (UniProt P0A9A6)", "test": "BLI; 6×His-SUMO fusions of FtsZ or its parts, or SUMO alone (0.5 µM), held on Ni-NTA biosensors, untagged ZapC in solution; Octet-Red96, 30°C, 1× Pol buffer (50 mM HEPES-NaOH pH 6.8, 50 mM KCl, 10 mM MgCl2); apparent Kd from the signal at the end of association against concentration, one-site fit; three repeats with mean (X) and SD", "note": "“And” between values parts separate entries of the source, which are not always exact repeats. Equal values may be shown once.", "data": [{"substance": "ZapC (untagged) (from UniProt P75862 1-180) (natural protein)", "values": [{"measurement": "Kd", "value": "10.2 µM and 8.06 µM and 9.89 µM"}]}]}
